# According to patent US20040176285A1, “Tip39 polypeptides” (priority 2001, published 2004):
# Where no end group is shown, it is not given here.
# T1: PTH1R (Homo sapiens, UniProt Q03431)
# T1 sequence (Q03431 27-593): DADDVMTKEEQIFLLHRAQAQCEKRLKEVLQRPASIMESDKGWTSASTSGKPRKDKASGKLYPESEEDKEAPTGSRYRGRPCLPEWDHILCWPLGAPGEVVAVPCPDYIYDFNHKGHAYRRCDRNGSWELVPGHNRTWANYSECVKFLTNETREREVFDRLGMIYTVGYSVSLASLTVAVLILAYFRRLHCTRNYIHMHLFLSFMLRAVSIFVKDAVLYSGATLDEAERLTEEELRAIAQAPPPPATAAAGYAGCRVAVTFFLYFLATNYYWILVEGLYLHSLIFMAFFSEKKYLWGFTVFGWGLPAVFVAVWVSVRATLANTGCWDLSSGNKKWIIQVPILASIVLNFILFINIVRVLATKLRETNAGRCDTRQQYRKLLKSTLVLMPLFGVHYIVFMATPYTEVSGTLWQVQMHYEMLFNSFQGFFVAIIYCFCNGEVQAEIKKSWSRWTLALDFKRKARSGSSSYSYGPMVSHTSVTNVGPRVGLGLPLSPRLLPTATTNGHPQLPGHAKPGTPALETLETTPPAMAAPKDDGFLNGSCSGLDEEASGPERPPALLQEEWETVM
# T2: endogenous PTH1R (Homo sapiens, UniProt Q03431)
# T2 construct: SaOS-2 cells expressing the wild-type PTH1R endogenously; endogenous in cells; host or cells: SaOS-2 human osteosarcoma cells
# T2 sequence (Q03431 27-593): T1 sequence (Q03431 27-593)
# T3: human PTH/PTHrP receptor (PTH1R) (human, UniProt Q03431 27-593)
# T3 sequence (looked up): T1 sequence (Q03431 27-593)
# What was measured:
# PTH1R [1] = target: T1, PTH1R; assay: Inhibition of agonist-stimulated cAMP accumulation in HKrk-B7 cells; format: cell-based; parameters: expressed in transfected cells; conditions: agonist PTH(1-34), PTHrP(1-36) or PTHrP(1-20)/TIP(23-39) at 1 nM (about half-maximal)
# Source text: (§1) FIG. 4A-4F. Inhibition of agonist-stimulated cAMP accumulation in HKrk-B7 cells (FIG. 4A-4C) or SaOS-2 cells (FIG. 4D-4F). […] Data are expressed as % of half-maximal cAMP accumulation and represent the results (mean±SE) of at least three independent experiments.
# (§2) Na^125I (specific activity: 2,000 Ci/mmol) was purchased from DuPont/NEN, Boston, Mass. Fetal bovine serum, 3-isobutyl-1-methyl-xanthine (IBMX), and BSA were from Sigma, St. Louis, Mo., and trifluoroacetic acid (TFA) was from Pierce, Rockford, Ill. Radiolabeled rPTH(1-34) and PTHrP(1-36) were prepared by the chloramine-T method, followed by HPLC purification using a 30-50% ACN/0.1% TFA gradient over 30 minutes; radioreceptor assays were performed in 24-well plates as previously described (Gardella, T. J., et al., J. Biol. Chem. 271:19888-19893 (1996); Fukayama, S. et al., Endocrinology 134:1851-1858 (1994)). […] The entire lysate was counted for γ-irradiation. Specific binding was determined after subtracting radioactivity bound in the presence of maximal concentrations of unlabeled competing peptide (10^−6 M). […] Data were analyzed and graphically illustrated using the graph-pad prism software package.
# human PTH2 receptor = target: T4, human PTH2 receptor (Homo sapiens, UniProt P49190); assay: Ligand-stimulated cAMP accumulation in hPR2-20 LLCPK1 cells; format: cell-based
# T4 construct: expressed in transfected cells
# PTH1R [2] = target: T1, PTH1R; assay: Ligand-stimulated cAMP accumulation in HKrk-B7 cells; format: cell-based; parameters: expressed in transfected cells; conditions: HKrk-B7 cells
# Experimental: (§3) DMEM, Trypsin/EDTA, and penicillin G/streptomycin and horse serum were from Gibco/BRL, Life Technologies, Gaithersburg, Md. LLC-PK, expressing the recombinant human PTH1R (HKrk-B7 cells) and SaOS-2 cells expressing the wild-type PTH1R endogenously were cultured in DMEM supplemented with 10% heat-inactivated fetal bovine serum, 100 U/ml penicillin, 100 μg/ml streptomycin, as previously described (Gardella, T. J., et al., J. Biol. Chem. 271:19888-19893 (1996); Fukayama, S., et al., Endocrinology 134:1851-1858 (1994)); both cell lines were maintained in a humidified atmosphere containing 95% air and 5% CO2. After seeding, medium was replaced daily, until cells were used for radioligand binding or cAMP accumulation assays.
# (§4) Na^125I (specific activity: 2,000 Ci/mmol) was purchased from DuPont/NEN, Boston, Mass. Fetal bovine serum, 3-isobutyl-1-methyl-xanthine (IBMX), and BSA were from Sigma, St. Louis, Mo., and trifluoroacetic acid (TFA) was from Pierce, Rockford, Ill. Radiolabeled rPTH(1-34) and PTHrP(1-36) were prepared by the chloramine-T method, followed by HPLC purification using a 30-50% ACN/0.1% TFA gradient over 30 minutes; radioreceptor assays were performed in 24-well plates as previously described (Gardella, T. J., et al., J. Biol. Chem. 271:19888-19893 (1996); Fukayama, S. et al., Endocrinology 134:1851-1858 (1994)). In brief, each well (final volume 500 μl) contained binding buffer (BB; 50 mM Tris-HCl (pH 7.7), 100 mM NaCl, 5 mM KCl, 2 mM CaCl2, 5% heat-inactivated horse serum, and 0.5% heat-inactivated fetal bovine serum), the ^125I-labeled PTH or PTHrP analog (100,000 to 200,000 cpm) was incubated in the absence or presence of increasing concentrations of unlabeled peptides. After 4 h at 16° C., buffer was completely removed, the cells were rinsed with cold BB and lysed with 1 M NaOH. The entire lysate was counted for γ-irradiation. Specific binding was determined after subtracting radioactivity bound in the presence of maximal concentrations of unlabeled competing peptide (10^−6 M). Agonist-dependent stimulation of cAMP accumulation by HKrk-B7 and SaOS-2 cells (48-well plates; stimulation at room temperature for 45 minutes) and the subsequent measurement of cAMP by radioimmunoassay was performed as previously described (Gardella, T. J., et al., J. Biol. Chem. 271:19888-19893 (1996); Bergwitz, C., et al., Endocrinology 139:723-732 (1998)). Data were analyzed and graphically illustrated using the graph-pad prism software package.
# The values for EC50 and Vmax (mean±SE) are derived from at least three independent experiments.
# PTH1R [3] = target: T1, PTH1R; assay: Inhibition of agonist-stimulated cAMP accumulation in SaOS-2 cells; format: cell-based; parameters: expressed in transfected cells; conditions: SaOS-2 cells (stated for both cell lines); agonists 0.15-0.3 nM
# Source text: as §1, §2
# endogenous PTH1R = target: T2, endogenous PTH1R; assay: Ligand-stimulated cAMP accumulation in SaOS-2 cells; format: cell-based; conditions: SaOS-2 cells
# Experimental: as §3
# as §4, with “After 4 h at 16° C., buffer was completely removed, the cells were rinsed with cold BB and lysed with 1 M NaOH.” left out, “Agonist-dependent stimulation of cAMP accumulation by HKrk-B7 and SaOS-2 cells (48-well plates; stimulation at room temperature for 45 minutes) and the subsequent measurement of cAMP by radioimmunoassay was performed as previously described (Gardella, T. J., et al., J. Biol. Chem. 271:19888-19893 (1996); Bergwitz, C., et al., Endocrinology 139:723-732 (1998)).” left out, “package. […]” for “package.”
# PTH1R [4] = target: T1, PTH1R; conditions: cited from earlier work
# PTH1R [5] = target: T1, PTH1R; conditions: cited from earlier work; remark: listed apart in the source
# PTH1R [6] = target: T1, PTH1R; conditions: cited from earlier work; remark: listed apart in the source
# [7] = target: T3, human PTH/PTHrP receptor (PTH1R); assay: cell-based or functional assay
# [8] = target: T3, human PTH/PTHrP receptor (PTH1R); assay: cell-based or functional assay; remark: listed apart in the source
# [9] = target: T3, human PTH/PTHrP receptor (PTH1R); assay: radioreceptor competition on HKrk-B7 cells; tracer 125I-rat [Nle8,21,Tyr34]PTH(1-34)amide
# Experimental: (§5) Na¹²⁵I (specific activity: 2,000 Ci/mmol) was purchased from DuPont/NEN, Boston, Mass. Fetal bovine serum, 3-isobutyl-1-methyl-xanthine (IBMX), and BSA were from Sigma, St. Louis, Mo., and trifluoroacetic acid (TFA) was from Pierce, Rockford, Ill. […] After 4 h at 16° C., buffer was completely removed, the cells were rinsed with cold BB and lysed with 1 M NaOH. The entire lysate was counted for γ-irradiation. Specific binding was determined after subtracting radioactivity bound in the presence of maximal concentrations of unlabeled competing peptide (10⁻⁶ M). Agonist-dependent stimulation of cAMP accumulation by HKrk-B7 and SaOS-2 cells (48-well plates; stimulation at room temperature for 45 minutes) and the subsequent measurement of cAMP by radioimmunoassay was performed as previously described (Gardella, T. J., et al., J. Biol. Chem. 271:19888-19893 (1996); Bergwitz, C., et al., Endocrinology 139:723-732 (1998)). Data were analyzed and graphically illustrated using the graph-pad prism software package.
# [10] = target: T3, human PTH/PTHrP receptor (PTH1R); assay: radioreceptor competition on HKrk-B7 cells
# Experimental: (§6) Specific binding was determined after subtracting radioactivity bound in the presence of maximal concentrations of unlabeled competing peptide (10⁻⁶ M). Agonist-dependent stimulation of cAMP accumulation by HKrk-B7 and SaOS-2 cells (48-well plates; stimulation at room temperature for 45 minutes) and the subsequent measurement of cAMP by radioimmunoassay was performed as previously described (Gardella, T. J., et al., J. Biol. Chem. 271:19888-19893 (1996); Bergwitz, C., et al., Endocrinology 139:723-732 (1998)). Data were analyzed and graphically illustrated using the graph-pad prism software package.
# [11] = target: T3, human PTH/PTHrP receptor (PTH1R); assay: radioreceptor competition on HKrk-B7 cells; tracer 125I-[Tyr36]PTHrP(1-36)amide
# Experimental: as §5
# [12] = target: T3, human PTH/PTHrP receptor (PTH1R); assay: radioreceptor competition on HKrk-B7 cells; either tracer
# Experimental: as §6
# T4 sequence (P49190 25-550): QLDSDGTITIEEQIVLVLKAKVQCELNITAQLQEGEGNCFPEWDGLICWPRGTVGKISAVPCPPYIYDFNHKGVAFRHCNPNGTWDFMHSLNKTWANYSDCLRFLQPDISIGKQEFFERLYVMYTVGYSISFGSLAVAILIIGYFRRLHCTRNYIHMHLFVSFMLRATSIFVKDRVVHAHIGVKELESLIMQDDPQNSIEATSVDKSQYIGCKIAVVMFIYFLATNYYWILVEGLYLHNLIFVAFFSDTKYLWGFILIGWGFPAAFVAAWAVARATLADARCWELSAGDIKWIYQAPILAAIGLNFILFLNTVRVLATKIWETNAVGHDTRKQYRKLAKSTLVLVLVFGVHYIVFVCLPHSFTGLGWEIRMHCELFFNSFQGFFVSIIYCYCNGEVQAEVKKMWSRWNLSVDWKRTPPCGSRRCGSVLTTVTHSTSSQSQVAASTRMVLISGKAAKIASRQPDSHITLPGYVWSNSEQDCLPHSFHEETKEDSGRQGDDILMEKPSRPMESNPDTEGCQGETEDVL
molecule,measurement,setting,value
"CC[C@H](C)[C@H](NC(=O)[C@H](CC(C)C)NC(=O)[C@H](Cc1c[nH]cn1)NC(=O)[C@H](Cc1c[nH]cn1)NC(=O)[C@H](CC(C)C)NC(=O)[C@H](Cc1c[nH]c2ccccc12)NC(=O)[C@H](Cc1ccccc1)NC(=O)[C@H](CCCNC(=N)N)NC(=O)[C@H](CCCNC(=N)N)NC(=O)[C@H](CCCNC(=N)N)NC(=O)[C@H](CC(C)C)NC(=O)[C@H](CC(=O)O)NC(=O)[C@H](CCC(N)=O)NC(=O)[C@@H](NC(=O)[C@H](CO)NC(=O)[C@H](CCCCN)NC(=O)[C@@H](Cc1c[nH]c2ccccc12)NC(=O)[C@H](CC(C)C)NC(=O)[C@H](CC(=O)O)NC(=O)[C@H](Cc1c[nH]cn1)NC(=O)[C@H](CC(C)C)NC(=O)[C@@H](N)CC(C)C)[C@@H](C)CC)C(=O)N[C@@H](C)C(=O)N[C@@H](CCC(=O)O)C(=O)N[C@H](C(=O)N[C@@H](Cc1c[nH]cn1)C(=O)N[C@H](C(=O)N[C@@H](C)C(=O)N[C@@H](CCC(=O)O)C(=O)N[C@@H](Cc1ccc(O)cc1)C(N)=O)[C@@H](C)O)[C@@H](C)CC [PTHrP(7-36), [Leu^11, D-Trp^12, Trp^23, Tyr^36]PTHrP(7-36)amide]",IC50,PTH1R [1],~100 nM
"CSCC[C@H](NC(=O)[C@H](Cc1ccc(O)cc1)NC(=O)[C@H](CO)NC(=O)[C@H](CC(N)=O)NC(=O)[C@H](CC(C)C)NC(=O)[C@H](Cc1c[nH]c2ccccc12)NC(=O)[C@H](Cc1c[nH]cn1)NC(=O)[C@H](CCCNC(=N)N)NC(=O)[C@H](CCCNC(=N)N)NC(=O)[C@H](CCC(=O)O)NC(=O)[C@H](CC(C)C)NC(=O)[C@H](C)NC(=O)[C@H](C)NC(=O)[C@H](CC(C)C)NC(=O)[C@H](CC(C)C)NC(=O)[C@H](CCCNC(=N)N)NC(=O)[C@H](C)NC(=O)[C@H](CCCNC(=N)N)NC(=O)[C@H](CCC(=O)O)NC(=O)[C@H](CCCNC(=N)N)NC(=O)[C@H](Cc1ccccc1)NC(=O)[C@H](C)NC(=O)[C@H](C)NC(=O)[C@H](CC(=O)O)NC(=O)[C@H](CC(=O)O)NC(=O)[C@H](C)NC(=O)[C@H](CC(C)C)NC(=O)[C@H](C)NC(=O)[C@H](CC(C)C)NC(=O)[C@@H](N)CO)C(=O)N[C@@H](Cc1c[nH]cn1)C(=O)N[C@@H](CCCCN)C(=O)N[C@@H](CC(C)C)C(=O)N[C@@H](CC(C)C)C(=O)N[C@H](C(=O)N[C@@H](CC(C)C)C(=O)N[C@@H](CC(=O)O)C(=O)N[C@@H](C)C(=O)N1CCC[C@H]1C(N)=O)C(C)C [TIP(1-39), reference compound]",maximum cAMP accumulation,human PTH2 receptor,136.5±4.9 pmol/well
same,stimulation of cAMP accumulation at the PTH1R (in words),PTH1R [2],failed to stimulate cAMP accumulation
same,inhibition of agonist actions (in words),PTH1R [3],inhibited the actions of the three agonists
same,stimulation of cAMP accumulation (in words),endogenous PTH1R,failed to stimulate cAMP accumulation
"PTH(15-34)amide (LNSMERVEWLRKKLQDVHNF; not fully specified (C-terminus); UniProt P01270 46-65, looked up, fragment)",affinity for the PTH1R (in words),PTH1R [4],very low (micromolar) affinity
"TIP(7-39): truncated TIP39 of Hoare et al., excluded from the claims (DAAFRERARLLAALERRHWLNSYMHKLLVLDAP; Tuberoinfundibular peptide of 39 residues; UniProt P0C171 68-100, looked up, fragment)",inhibition of radioligand binding to the PTH1R (in words),PTH1R [5],efficiently inhibited radioligand binding
same,agonist activity at the PTH1R (in words),PTH1R [6],no agonist activity
"[Leu^11, D-Trp^12, Trp^23, Tyr^36]PTHrP(7-36)amide (from UniProt P12272 43-72) (peptide)","IC50 of inhibition of agonist-stimulated cAMP accumulation, HKrk-B7 cells",[7],100 nM
"AFRERARLLAALERRHWLNSYMHKLLVLDAP (not fully specified (C-terminus), also called human TIP-(9-39)) [TIP(9-39)]","IC50 of inhibition of agonist-stimulated cAMP accumulation, HKrk-B7 cells (agonists PTH(1-34), PTHrP(1-36) or PTHrP(1-20)/TIP(23-39), 1 nM)",[8],300 nM
same,IC50,[9],39 nM
same,fold higher apparent binding affinity in comparison to the parent peptide TIP(1-39),[10],~5.5 fold
same,IC50,[11],44 nM
same,fold improvement in apparent binding affinity relative to TIP(1-39),[12],≤ 6 fold
